Assay results reported in patent US20110230406A1.

Biological target: rhBMP-2 (R&D Systems, Item number 355-BM/CF) (human) (UniProt P12643)
Test: retention test: peptide-free EDC/NHS crosslinked collagen disc loaded with 40 micrograms rhBMP-2, spun, unbound rhBMP-2 in supernatant by ELISA; control for the affinity biomatrix

Sequence of rhBMP-2 (R&D Systems, Item number 355-BM/CF) (human) (P12643 283-396 limits assumed): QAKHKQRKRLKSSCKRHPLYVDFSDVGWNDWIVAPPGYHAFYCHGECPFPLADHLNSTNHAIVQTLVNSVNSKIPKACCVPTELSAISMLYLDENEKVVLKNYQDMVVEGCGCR

% rhBMP-2 incorporation: 40 % by weight
Substance: affinity peptide-free EDC/NHS crosslinked collagen disc (6 mm diameter)
